# Numbered stars: 1 amine (or outer) side, 2 acyl side, 3 side chain; on linkers, the order of the positions; unused ones are H or OH. Square brackets hold non-standard residues; d marks the D form. Ends that are not written are not given here. A^u = urea/ureido (oligourea) residue with alanine side chain, C[C@@H](CNC(=O)[*:2])N[*:1]; Au = A^u, ureido (oligourea) alanine residue, C[C@@H](CNC(=O)[*:2])N[*:1]; D^uα = urea/ureido residue with aspartic acid side chain; E^u = urea/ureido residue with glutamic acid side chain; Y^u = urea/ureido residue with tyrosine side chain
# T1: mouse GLP-1 receptor endogenously expressed in βTC6 cells (mouse, UniProt O35659 22-463)
# T1 sequence (looked up): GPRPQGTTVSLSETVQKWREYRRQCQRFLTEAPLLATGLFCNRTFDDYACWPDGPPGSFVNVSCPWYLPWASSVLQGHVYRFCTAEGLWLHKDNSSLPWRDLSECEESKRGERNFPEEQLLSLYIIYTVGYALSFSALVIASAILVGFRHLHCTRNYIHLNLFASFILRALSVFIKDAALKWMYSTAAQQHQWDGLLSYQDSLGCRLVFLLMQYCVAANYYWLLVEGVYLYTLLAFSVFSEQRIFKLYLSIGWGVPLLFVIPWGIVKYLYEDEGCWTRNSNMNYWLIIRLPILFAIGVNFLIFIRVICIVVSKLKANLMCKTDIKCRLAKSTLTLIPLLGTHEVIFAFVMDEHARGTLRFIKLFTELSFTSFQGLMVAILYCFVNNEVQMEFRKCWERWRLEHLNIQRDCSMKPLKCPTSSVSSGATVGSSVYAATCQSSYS
# Biological target: T1, mouse GLP-1 receptor endogenously …
# Test: cell-based or functional assay
Binder,"EC50 (nM), cAMP production functional assay","Potency (%) compared to GLP-1-G^2, cAMP production"
HGEGTFTSDV[Au][Au][Au]EGQAAKEFIAWLVKGRG-NH2 (also: oligourea (urea) backbone at A^u units) [GG2[A^UA^UA^U]^11-14],97 nM,0.2%
HGEGTFTSDV[A^u][Y^u][A^u]EGQAAKEFIAWLVKGRG-NH2 [GG2[A^UY^UA^U]^11-14],1.6 nM,15%
H-HGEGTFTSDVS[Au][Au][Au]GQAAKEFIAWLVKGRG-NH2 (also: oligourea (urea) backbone at A^u units) [GG2[A^UA^UA^U]^12-15],> 10000 nM,< 0.01%
HGEGTFTSDVSS[Au][Au][Au]QAAKEFIAWLVKGRG-NH2 (also: oligourea (urea) backbone at A^u units) [GG2[A^UA^UA^U]^13-16],> 10000 nM,< 0.01%
H-HGEGTFTSDVSSY[Au][Au][Au]AAKEFIAWLVKGRG-NH2 (also: oligourea (urea) backbone at A^u units) [GG2[A^UA^UA^U]^14-17],353 nM,0.07%
HGEGTFTSDVSSY[Y^u][E^u][A^u]AAKEFIAWLVKGRG-NH2 [GG2[Y^UE^UA^U]^14-17],0.18 nM,135%
H-HGEGTFTSDVSSYL[Au][Au][Au]AKEFIAWLVKGRG-NH2 (also: oligourea (urea) backbone at A^u units) [GG2[A^UA^UA^U]^15-18],123 nM,0.2%
HGEGTFTSDVSSYL[E^u][A^u][A^u]AKEFIAWLVKGRG-NH2 [GG2[E^UA^UA^U]^15-18],1.9 nM,13%
H-HGEGTFTSDVSSYLE[Au][Au][Au]KEFIAWLVKGRG-NH2 (also: oligourea (urea) backbone at A^u units) [GG2[A^UA^UA^U]^16-19],240 nM,0.1%
HGEGTFTSDVSSYLEG[A^u][A^u][A^u]EFIAWLVKGRG-NH2 (N-terminus assumed; SMILES CC[C@H](C)[C@H](NC(=O)[C@H](Cc1ccccc1)NC(=O)[C@H](CCC(=O)O)NC(=O)NC[C@H](C)NC(=O)NC[C@H](C)NC(=O)NC[C@H](C)NC(=O)CNC(=O)[C@H](CCC(=O)O)NC(=O)[C@H](CC(C)C)NC(=O)[C@H](Cc1ccc(O)cc1)NC(=O)[C@H](CO)NC(=O)[C@H](CO)NC(=O)[C@@H](NC(=O)[C@H](CC(=O)O)NC(=O)[C@H](CO)NC(=O)[C@@H](NC(=O)[C@H](Cc1ccccc1)NC(=O)[C@@H](NC(=O)CNC(=O)[C@H](CCC(=O)O)NC(=O)CNC(=O)[C@@H](N)Cc1c[nH]cn1)[C@@H](C)O)[C@@H](C)O)C(C)C)C(=O)N[C@@H](C)C(=O)N[C@@H](Cc1c[nH]c2ccccc12)C(=O)N[C@@H](CC(C)C)C(=O)N[C@H](C(=O)N[C@@H](CCCCN)C(=O)NCC(=O)N[C@@H](CCCNC(=N)N)C(=O)NCC(N)=O)C(C)C) [GG2[A^UA^UA^U]^17-20],1600 nM,0.01%
HGEGTFTSDVSSYLEGQ[A^u][A^u][A^u]FIAWLVKGRG-NH2 [GG2[A^UA^UA^U]^18-21],4.1 nM,6%
H-HGEGTFTSDVSSYLEGQAAKEFIAWLVKGRG-NH2 [GLP-1-G^2 (GG2)],0.24 nM,100%
HGEGTFTSDVSSYLEGQA[A^u][A^u][A^u]IAWLVKGRG-NH2 (N-terminus assumed; SMILES CC[C@H](C)[C@H](NC(=O)NC[C@H](C)NC(=O)NC[C@H](C)NC(=O)NC[C@H](C)NC(=O)[C@H](C)NC(=O)[C@H](CCC(N)=O)NC(=O)CNC(=O)[C@H](CCC(=O)O)NC(=O)[C@H](CC(C)C)NC(=O)[C@H](Cc1ccc(O)cc1)NC(=O)[C@H](CO)NC(=O)[C@H](CO)NC(=O)[C@@H](NC(=O)[C@H](CC(=O)O)NC(=O)[C@H](CO)NC(=O)[C@@H](NC(=O)[C@H](Cc1ccccc1)NC(=O)[C@@H](NC(=O)CNC(=O)[C@H](CCC(=O)O)NC(=O)CNC(=O)[C@@H](N)Cc1c[nH]cn1)[C@@H](C)O)[C@@H](C)O)C(C)C)C(=O)N[C@@H](C)C(=O)N[C@@H](Cc1c[nH]c2ccccc12)C(=O)N[C@@H](CC(C)C)C(=O)N[C@H](C(=O)N[C@@H](CCCCN)C(=O)NCC(=O)N[C@@H](CCCNC(=N)N)C(=O)NCC(N)=O)C(C)C) [GG2[A^UA^UA^U]^19-22],> 10000 nM,< 0.01%
"HGEGTFTSDVSSYLEGQAAKEXXXLVKGRG (ureido (oligourea) residues F^uα I^u A^u at positions 22-24 of the hybrid, replacing residues 22-25 of GLP-1-G2; C-terminal amide) [GG2[F^UαI^UA^U]^22-25]",62 nM,0.4%
HGEGTFTSDVSSYLEGQAAKEF[A^u][A^u][A^u]VKGRG-NH2 (N-terminus assumed; SMILES CC(C)C[C@H](NC(=O)[C@H](Cc1ccc(O)cc1)NC(=O)[C@H](CO)NC(=O)[C@H](CO)NC(=O)[C@@H](NC(=O)[C@H](CC(=O)O)NC(=O)[C@H](CO)NC(=O)[C@@H](NC(=O)[C@H](Cc1ccccc1)NC(=O)[C@@H](NC(=O)CNC(=O)[C@H](CCC(=O)O)NC(=O)CNC(=O)[C@@H](N)Cc1c[nH]cn1)[C@@H](C)O)[C@@H](C)O)C(C)C)C(=O)N[C@@H](CCC(=O)O)C(=O)NCC(=O)N[C@@H](CCC(N)=O)C(=O)N[C@@H](C)C(=O)N[C@@H](C)C(=O)N[C@@H](CCCCN)C(=O)N[C@@H](CCC(=O)O)C(=O)N[C@@H](Cc1ccccc1)C(=O)N[C@@H](C)CNC(=O)N[C@@H](C)CNC(=O)N[C@@H](C)CNC(=O)N[C@H](C(=O)N[C@@H](CCCCN)C(=O)NCC(=O)N[C@@H](CCCNC(=N)N)C(=O)NCC(N)=O)C(C)C) [GG2[A^UA^UA^U]^23-26],3930 nM,0.01%
"HGEGTFTSDVSSYLEGQAAKEFIXXXKGRG (ureido (oligourea) residues A^u A^u A^u at positions 24-26 of the hybrid, replacing residues 24-27 of GLP-1-G2; C-terminal amide) [GG2[A^UA^UA^U]^24-27]",> 10000 nM,< 0.01%
HGEGTFTSDVSSY[Y^u][E^u][A^u][A^u][A^u][A^u]FIAWLVKGRG-NH2 [GG2[Y^uE^uA^uA^uA^uA^u]^14-21],3.4 nM,7%
HGEGTFTS[D^uα][A^u][A^u]YLEGQAAKEFIAWLVKGRG-NH2 [GG2[D^UαA^UA^U]^9-12],13 nM,2%
H-HGEGTFTSD[Au][Au][Au]LEGQAAKEFIAWLVKGRG-NH2 (also: oligourea (urea) backbone at A^u units) [GG2[A^UA^UA^U]^10-13],650 nM,0.04%

# — patent publication US20200230249A1 (UREKA SARL, published 2020)
